Results as given in doi:10.1101/2025.11.18.686377.

Biological target: NGF^painless (NGF variant bearing R100E+P61S mutations) (human)
Experiment: native MS

- stoichiometry N: 2
Substance: NGF^painless (NGF variant bearing R100E+P61S mutations) (ligand)
